Reference: patent publication US20050118148

How the values were obtained:
Assay in all cases: cell_activity
MafB (Mus musculus) = MafB (Mus musculus) (UniProt P54841); conditions: HeLa; +/-10.4
c-Maf (Mus musculus) = c-Maf (Mus musculus) (UniProt P54843); conditions: HeLa; +/-12.1
[1] = target: MafA (mouse L-Maf) (Mus musculus) (UniProt Q8CF90); conditions: HeLa; +/-2.8
Chain of MafA (mouse L-Maf) (Mus musculus) (Q8CF90 whole entry): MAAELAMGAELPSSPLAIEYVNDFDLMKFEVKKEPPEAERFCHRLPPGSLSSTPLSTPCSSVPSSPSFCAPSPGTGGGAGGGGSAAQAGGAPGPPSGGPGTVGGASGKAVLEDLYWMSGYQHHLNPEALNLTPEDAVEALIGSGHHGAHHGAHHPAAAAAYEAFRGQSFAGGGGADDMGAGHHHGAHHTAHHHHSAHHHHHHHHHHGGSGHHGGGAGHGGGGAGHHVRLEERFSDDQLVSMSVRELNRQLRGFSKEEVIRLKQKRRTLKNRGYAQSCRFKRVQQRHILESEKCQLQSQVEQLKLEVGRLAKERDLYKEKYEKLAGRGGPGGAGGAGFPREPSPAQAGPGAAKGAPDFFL

Chain of MafB (Mus musculus) (P54841 whole entry): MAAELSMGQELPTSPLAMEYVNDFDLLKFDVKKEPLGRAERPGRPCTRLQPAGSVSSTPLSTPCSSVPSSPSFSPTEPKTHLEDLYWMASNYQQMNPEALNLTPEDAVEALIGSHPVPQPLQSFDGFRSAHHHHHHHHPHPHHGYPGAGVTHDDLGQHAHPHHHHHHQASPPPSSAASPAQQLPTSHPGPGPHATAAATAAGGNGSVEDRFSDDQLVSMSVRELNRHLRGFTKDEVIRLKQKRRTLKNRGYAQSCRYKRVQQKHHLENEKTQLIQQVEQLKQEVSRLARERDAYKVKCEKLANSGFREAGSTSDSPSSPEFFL
Chain of c-Maf (Mus musculus) (P54843 whole entry): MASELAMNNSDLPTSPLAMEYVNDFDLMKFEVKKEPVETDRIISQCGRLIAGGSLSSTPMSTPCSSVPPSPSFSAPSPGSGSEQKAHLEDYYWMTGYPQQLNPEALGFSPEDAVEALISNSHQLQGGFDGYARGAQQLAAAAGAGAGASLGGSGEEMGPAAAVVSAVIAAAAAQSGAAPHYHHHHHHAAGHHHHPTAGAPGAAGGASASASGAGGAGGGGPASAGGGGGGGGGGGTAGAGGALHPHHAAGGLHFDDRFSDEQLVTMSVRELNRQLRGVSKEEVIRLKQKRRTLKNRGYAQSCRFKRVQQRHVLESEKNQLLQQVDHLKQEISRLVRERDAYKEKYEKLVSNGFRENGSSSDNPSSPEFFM

## rat insulin II promoter -238/+2 (-238 WT LUC)
MafB (Mus musculus)
  activity (relative luciferase (printed as %)): 23.9
c-Maf (Mus musculus)
  activity (relative luciferase (printed as %)): 28
[1]
  activity (relative luciferase (printed as %)): 13.2
